Test results as given in paper PMC7057333.
Like-named read-outs stand apart in the source and are kept apart here.

Columns and labels:
[1] = target: LSD1_(172-833), lysine-specific demethylase 1 (human) (UniProt O60341)
[2] = target: LSD1_(172-833), lysine-specific demethylase 1 (human) (UniProt O60341); assay: enzyme inhibition kinetics (HRP-coupled fluorescence demethylation assay); 25 nM LSD1, substrate H3K4me1_(1-21), 25 mM Tris, 50 mM NaCl, 0.1 mg/mL BSA, pH 8, 1% DMSO; Ki by global fit of competitive inhibition for 1, 11, 24, 28, 31, 33, 34, else from IC50 by Cheng-Prusoff (substrate 20 μM)
[3] = target: LSD1_(172-833), lysine-specific demethylase 1 (human) (UniProt O60341); remark: listed apart in the source

Substance | % inhibition of LSD1 demethylase activity at 100 μM peptide [1] [%] | Ki [2] [µM] | % inhibition of LSD1 demethylase activity at 100 μM peptide [3] [%] | IC50 of inhibition of LSD1 demethylase activity [3] [µM]
lactam 27 (Lys3-Glu6 lactam-bridged H3_(1-11) K4M) (peptide) | 65 | 31 | – | –
lactam 28 (Glu3-Lys6 lactam-bridged H3_(1-11) K4M) (peptide) | 98 | 4 | – | –
lactam 29 (A1P-substituted lactam 27) (peptide) | 90 | 7 | – | –
lactam 30 (A1P-substituted lactam 28) (peptide) | 75 | 22 | – | –
lactam 32 (D-Glu3-Lys6 lactam-bridged H3_(1-11) K4M) (peptide) | < 20 | > 100 | – | –
macrocycle 31 (D-Lys3-Glu6 lactam-bridged H3_(1-11) K4M) (peptide) | 100 | 2.3 | – | –
peptide 20, linear precursor of 21 (allylglycine at positions 3 and 6 of H3_(1-11) K4M) | – | – | 95 | 10
